US20220002427A1 (ENGMAB SARL, published 2022)
Where “and” joins values, the source holds several entries; their conditions need not be identical. Equal entries are not always repeated.

Legend:
[1] = target: T1, human BCMA on cells (human, UniProt Q02223 1-184); test: cell-based or functional assay
T1 sequence (looked up): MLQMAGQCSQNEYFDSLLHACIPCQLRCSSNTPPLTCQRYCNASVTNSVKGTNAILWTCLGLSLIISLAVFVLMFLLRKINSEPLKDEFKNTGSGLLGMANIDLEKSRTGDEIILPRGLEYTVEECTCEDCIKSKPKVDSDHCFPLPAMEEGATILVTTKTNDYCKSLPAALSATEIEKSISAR

[2] = target: T1, human BCMA on cells; test: flow cytometry on H929 multiple myeloma cells, PE anti-human Fc F(ab')2 detection; estimated EC50
Description: (§1) Briefly, cultured cells are harvested, counted and cell viability was evaluated using ViCell. Viable cells are then adjusted to 2×10⁶ cells per ml in BSA-containing FACS Stain Buffer (BD Biosciences). 100 μl of this cell suspension were further aliquoted per well into a round-bottom 96-well plate and incubated with 30 μl of the anti-BCMA antibodies or corresponding IgG control for 30 min at 4° c. All Anti-BCMA/anti-CD3 TCB antibodies (and TCB controls) were titrated and analyzed in final concentration range between 1-300 nM. Cells were then centrifuged (5 min, 350×g), washed with 120 μl/well FACS Stain Buffer (BD Biosciences), resuspended and incubated for an additional 30 min at 4° C. with fluorochrome-conjugated PE-conjugated AffiniPure F(ab′)2 Fragment goat anti-human IgG Fc Fragment Specific (Jackson Immuno Research Lab; 109-116-170). Cells were then washed twice with Stain Buffer (BD Biosciences), fixed using 100 ul BD Fixation buffer per well (#BD Biosciences, 554655) at 4° C. for 20 min, resuspended in 120 μl FACS buffer and analyzed using BD FACS CantoII.

[3] = target: T1, human BCMA on cells; test: cell-based or functional assay; remark: listed apart in the source
[4] = target: T1, human BCMA on cells; test: flow cytometry on RPMI-8226 multiple myeloma cells, PE anti-human Fc F(ab')2 detection; estimated EC50
Description: as §1

[5] = target: T1, human BCMA on cells; test: cell-based or functional assay; remark: listed apart in the source
[6] = target: T1, human BCMA on cells; test: cell-based or functional assay; remark: listed apart in the source
[7] = target: T1, human BCMA on cells; test: cell-based or functional assay; remark: listed apart in the source
[8] = target: T1, human BCMA on cells; test: flow cytometry on L363 multiple myeloma cells, PE anti-human Fc F(ab')2 detection; estimated EC50
Description: as §1

B1: 21-TCBcv (bispecific antibody, human IgG1, kappa, L234A L235A)
heavy 1: not shown
heavy 2: EVQLLESGGGLVQPGGSLRLSCAASGFTFSDNAMGWVRQAPGKGLEWVSAISGPGSSTYYADSVKGRFTISRDNSKNTLYLQMNSLRAEDTAVYYCAKVLGWFDYWGQGTLVTVSSASTKGPSVFPLAPSSKSTSGGTAALGCLVEDYFPEPVTVSWNSGALTSGVHTFPAVLQSSGLYSLSSVVTVPSSSLGTQTYICNVNHKPSNTKVDEKVEPKSCDKTHTCPPCPAPEAAGGPSVFLFPPKPKDTLMISRTPEVTCVVVDVSHEDPEVKFNWYVDGVEVHNAKTKPREEQYNSTYRVVSVLTVLHQDWLNGKEYKCKVSNKALGAPIEKTISKAKGQPREPQVCTLPPSRDELTKNQVSLSCAVKGFYPSDIAVEWESNGQPENNYKTTPPVLDSDGSFFLVSKLTVDKSRWQQGNVFSCSVMHEALHNHYTQKSLSLSPGK
light 1: EIVLTQSPGTLSLSPGERATLSCRASQSVSEYYLAWYQQKPGQAPRLLIEHASTRATGIPDRFSGSGSGTDFTLTISRLEPEDFAVYYCQQYGYPPDFTFGQGTKVEIKRTVAAPSVFIFPPSDRKLKSGTASVVCLLNNFYPREAKVQWKVDNALQSGNSQESVTEQDSKDSTYSLSSTLTLSKADYEKHKVYACEVTHQGLSSPVTKSFNRGEC
light 2: EVQLLESGGGLVQPGGSLRLSCAASGFTFSTYAMNWVRQAPGKGLEWVSRIRSKYNNYATYYADSVKGRFTISRDDSKNTLYLQMNSLRAEDTAVYYCVRHGNFGNSYVSWFAYWGQGTLVTVSSASVAAPSVFIFPPSDEQLKSGTASVVCLLNNFYPREAKVQWKVDNALQSGNSQESVTEQDSKDSTYSLSSTLTLSKADYEKHKVYACEVTHQGLSSPVTKSFNRGEC
notes: also called anti-BCMA/anti-CD3 T cell bispecific antibody of Mab21
EC50 of redirected T-cell killing of H929 cells (LDH release), Donor 1 [1]: 0.0971 nM
EC50 of redirected T-cell killing of H929 cells (LDH release), Donor 3 [1]: 0.0421 nM
EC50 of redirected T-cell killing of H929 cells (LDH release), Donor 4 [1]: 0.0539 nM
EC50 of redirected T-cell killing of H929 cells (LDH release), Donor 5 [1]: 0.0387 nM
EC50 [2]: 11 nM and 1.59 µg/mL
EC50 of redirected T-cell killing of L363 cells (LDH release), Donor 1 [3]: 0.0836 nM
EC50 of redirected T-cell killing of L363 cells (LDH release), Donor 2 [3]: 0.0384 nM
EC50 of redirected T-cell killing of L363 cells (LDH release), Donor 3 [3]: 0.0189 nM
EC50 of redirected T-cell killing of L363 cells (LDH release), Donor 4 [3]: 0.0191 nM
EC50 of redirected T-cell killing of L363 cells (LDH release), Donor 5 [3]: 0.0464 nM
EC50 [4]: 6.8 nM and 0.982 µg/mL
EC50 of redirected T-cell killing of RPMI-8226 cells (LDH release), Donor 2 [5]: 0.0413 nM
EC50 of redirected T-cell killing of RPMI-8226 cells (LDH release), Donor 3 [5]: 0.0088 nM
EC50 of redirected T-cell killing of RPMI-8226 cells (LDH release), Donor 4 [5]: 0.004 nM
EC50 of redirected T-cell killing of RPMI-8226 cells (LDH release), Donor 5 [5]: 0.0084 nM

B2: 22-TCBcv (bispecific antibody, human IgG1, kappa, L234A L235A)
heavy 1: not shown
heavy 2: EVQLLESGGGLVQPGGSLRLSCAASGFTFSDNAMGWVRQAPGKGLEWVSAISGPGSSTYYADSVKGRFTISRDNSKNTLYLQMNSLRAEDTAVYYCAKVLGWFDYWGQGTLVTVSSASTKGPSVFPLAPSSKSTSGGTAALGCLVEDYFPEPVTVSWNSGALTSGVHTFPAVLQSSGLYSLSSVVTVPSSSLGTQTYICNVNHKPSNTKVDEKVEPKSCDKTHTCPPCPAPEAAGGPSVFLFPPKPKDTLMISRTPEVTCVVVDVSHEDPEVKFNWYVDGVEVHNAKTKPREEQYNSTYRVVSVLTVLHQDWLNGKEYKCKVSNKALGAPIEKTISKAKGQPREPQVCTLPPSRDELTKNQVSLSCAVKGFYPSDIAVEWESNGQPENNYKTTPPVLDSDGSFFLVSKLTVDKSRWQQGNVFSCSVMHEALHNHYTQKSLSLSPGK
light 1: EIVLTQSPGTLSLSPGERATLSCRASQSVSSYYLAWYQQKPGQAPRLLISGAGSRATGIPDRFSGSGSGTDFTLTISRLEPEDFAVYYCQQYGYPPDFTFGQGTKVEIKRTVAAPSVFIFPPSDRKLKSGTASVVCLLNNFYPREAKVQWKVDNALQSGNSQESVTEQDSKDSTYSLSSTLTLSKADYEKHKVYACEVTHQGLSSPVTKSFNRGEC
light 2: EVQLLESGGGLVQPGGSLRLSCAASGFTFSTYAMNWVRQAPGKGLEWVSRIRSKYNNYATYYADSVKGRFTISRDDSKNTLYLQMNSLRAEDTAVYYCVRHGNFGNSYVSWFAYWGQGTLVTVSSASVAAPSVFIFPPSDEQLKSGTASVVCLLNNFYPREAKVQWKVDNALQSGNSQESVTEQDSKDSTYSLSSTLTLSKADYEKHKVYACEVTHQGLSSPVTKSFNRGEC
notes: also called 22-TCVcv; anti-BCMA/anti-CD3 T cell bispecific antibody of Mab22
EC50 of redirected T-cell killing of H929 cells (LDH release), Donor 1 [1]: 0.0532 nM
EC50 of redirected T-cell killing of H929 cells (LDH release), Donor 3 [1]: 0.0422 nM
EC50 of redirected T-cell killing of H929 cells (LDH release), Donor 4 [1]: 0.0232 nM
EC50 of redirected T-cell killing of H929 cells (LDH release), Donor 5 [1]: 0.0289 nM
Lysis of JJN-3 cells (%) at 0.1 pM TCB, Experiment 2 [6]: 36.5%
Lysis of JJN-3 cells (%) at 1 pM TCB, Experiment 1 [6]: -4.29%
Lysis of JJN-3 cells (%) at 1 pM TCB, Experiment 2 [6]: 24.4%
Lysis of JJN-3 cells (%) at 10 pM TCB, Experiment 1 [6]: 73.6%
Lysis of JJN-3 cells (%) at 10 pM TCB, Experiment 2 [6]: 41.7%
Lysis of JJN-3 cells (%) at 100 pM TCB, Experiment 1 [6]: 56.3%
Lysis of JJN-3 cells (%) at 100 pM TCB, Experiment 2 [6]: 53%
Lysis of JJN-3 cells (%) at 1000 pM TCB, Experiment 1 [6]: 90.5%
Lysis of JJN-3 cells (%) at 1000 pM TCB, Experiment 2 [6]: 94.1%
Lysis of JJN-3 cells (%) at 10000 pM TCB, Experiment 1 [6]: 88%
Lysis of JJN-3 cells (%) at 10000 pM TCB, Experiment 2 [6]: 91.2%
EC50 [2]: 7.9 nM and 1.14 µg/mL
EC50 of redirected T-cell killing of L363 cells (LDH release), Donor 1 [3]: 0.0975 nM
EC50 of redirected T-cell killing of L363 cells (LDH release), Donor 2 [3]: 0.0277 nM
EC50 of redirected T-cell killing of L363 cells (LDH release), Donor 3 [3]: 0.0165 nM
EC50 of redirected T-cell killing of L363 cells (LDH release), Donor 4 [3]: 0.0146 nM
EC50 of redirected T-cell killing of L363 cells (LDH release), Donor 5 [3]: 0.056 nM
Annexin-V positive JJN-3 cells (%) at 0.1 pM TCB, Experiment 2 [7]: 14.8%
Annexin-V positive JJN-3 cells (%) at 1 pM TCB, Experiment 1 [7]: 9.3%
Annexin-V positive JJN-3 cells (%) at 1 pM TCB, Experiment 2 [7]: 15%
Annexin-V positive JJN-3 cells (%) at 10 pM TCB, Experiment 1 [7]: 13.3%
Annexin-V positive JJN-3 cells (%) at 10 pM TCB, Experiment 2 [7]: 15.9%
Annexin-V positive JJN-3 cells (%) at 100 pM TCB, Experiment 1 [7]: 12.5%
Annexin-V positive JJN-3 cells (%) at 100 pM TCB, Experiment 2 [7]: 18.4%
Annexin-V positive JJN-3 cells (%) at 1000 pM TCB, Experiment 1 [7]: 26.1%
Annexin-V positive JJN-3 cells (%) at 1000 pM TCB, Experiment 2 [7]: 27%
Annexin-V positive JJN-3 cells (%) at 10000 pM TCB, Experiment 1 [7]: 22.9%
Annexin-V positive JJN-3 cells (%) at 10000 pM TCB, Experiment 2 [7]: 29.7%
EC50 [8]: 30 nM and 4.33 µg/mL
EC50 of redirected T-cell killing of RPMI-8226 cells (LDH release), Donor 2 [5]: 0.0476 nM
EC50 of redirected T-cell killing of RPMI-8226 cells (LDH release), Donor 3 [5]: 0.0076 nM
EC50 of redirected T-cell killing of RPMI-8226 cells (LDH release), Donor 4 [5]: 0.0032 nM
EC50 of redirected T-cell killing of RPMI-8226 cells (LDH release), Donor 5 [5]: 0.0055 nM
